The target in experiment [1] is hNaV1.5 ΔKPQ (deletion of lysine, proline and glutamine at positions 1505–1507) (human) (UniProt Q14524).
In experiment [2] the target is hNaV1.5 (human voltage-activated sodium channel alpha subunit NaV1.5, wild type) (human) (UniProt Q14524).

Consider KKLITFILKKTREK [β4 peptide (derived from Homo sapiens sodium channel β4 subunit)], for which, in experiment [1], the normalized INaR peak current, whole-cell voltage clamp of HEK293T cells, 30 μM β4 peptide in the pipette, against wild-type hNaV1.5 with the peptide (fold (against wild type with β4 peptide)) stood at 2. The same molecule gave a current availability at pulse III (0 mV) after conditioning pulses from −20 to 90 mV and 5 ms at −100 mV, 30 μM β4 peptide in the pipette in experiment [2] of 1.5 fold.

These data come from publication PMC12414692.
